Source: US20040121957A1

Molecular target: ΔNEG2-CFTR (CFTR with amino acids 817-838 deleted) (human), P13569
Experiment: cell-based or functional assay

ΔNEG2-CFTR (CFTR with amino acids 817-838 deleted) (human), P13569, sequence (P13569 other isoform, or with tags, fused parts or gaps mutant): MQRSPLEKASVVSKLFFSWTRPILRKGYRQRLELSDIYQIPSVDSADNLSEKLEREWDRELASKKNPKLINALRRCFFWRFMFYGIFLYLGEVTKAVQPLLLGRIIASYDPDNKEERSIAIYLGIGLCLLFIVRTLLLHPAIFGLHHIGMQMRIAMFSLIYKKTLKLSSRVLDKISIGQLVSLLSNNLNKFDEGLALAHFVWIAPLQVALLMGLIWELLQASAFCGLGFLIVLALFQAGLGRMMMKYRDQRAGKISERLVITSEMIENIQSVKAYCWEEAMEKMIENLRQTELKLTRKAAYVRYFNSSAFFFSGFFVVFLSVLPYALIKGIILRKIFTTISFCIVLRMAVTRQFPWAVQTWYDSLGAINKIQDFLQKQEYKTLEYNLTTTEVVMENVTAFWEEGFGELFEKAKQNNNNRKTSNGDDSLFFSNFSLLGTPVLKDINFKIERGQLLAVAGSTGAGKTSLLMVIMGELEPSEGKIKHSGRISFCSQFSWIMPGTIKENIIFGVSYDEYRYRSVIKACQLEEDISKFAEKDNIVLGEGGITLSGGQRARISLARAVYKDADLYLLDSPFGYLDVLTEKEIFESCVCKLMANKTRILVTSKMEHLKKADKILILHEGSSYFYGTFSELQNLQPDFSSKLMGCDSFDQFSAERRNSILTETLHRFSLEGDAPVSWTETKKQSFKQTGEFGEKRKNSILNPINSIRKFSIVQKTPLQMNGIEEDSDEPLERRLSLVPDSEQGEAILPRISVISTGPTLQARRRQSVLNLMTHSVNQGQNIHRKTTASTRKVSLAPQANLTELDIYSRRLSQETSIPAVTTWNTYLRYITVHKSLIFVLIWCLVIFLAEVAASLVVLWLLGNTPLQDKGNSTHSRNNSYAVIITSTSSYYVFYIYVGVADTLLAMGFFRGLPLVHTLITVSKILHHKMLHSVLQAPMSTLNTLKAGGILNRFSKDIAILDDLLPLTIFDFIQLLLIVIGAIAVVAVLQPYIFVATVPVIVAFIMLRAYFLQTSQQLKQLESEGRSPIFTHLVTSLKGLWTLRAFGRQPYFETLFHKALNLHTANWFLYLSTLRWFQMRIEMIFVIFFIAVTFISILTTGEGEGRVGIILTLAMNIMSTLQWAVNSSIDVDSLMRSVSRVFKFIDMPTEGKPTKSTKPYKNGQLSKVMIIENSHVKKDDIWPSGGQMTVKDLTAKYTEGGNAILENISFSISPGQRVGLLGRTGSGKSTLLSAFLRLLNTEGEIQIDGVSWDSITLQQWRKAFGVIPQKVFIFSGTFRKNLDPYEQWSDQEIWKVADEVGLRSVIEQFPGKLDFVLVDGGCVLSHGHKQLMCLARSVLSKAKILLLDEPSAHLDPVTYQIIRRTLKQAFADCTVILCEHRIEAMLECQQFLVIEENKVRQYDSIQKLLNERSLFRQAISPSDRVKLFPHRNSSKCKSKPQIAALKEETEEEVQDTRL

stimulation of single channel (peptide concentration): 0.44 µM
Binder: GLEISEEINEEDLKECFFDDME [synthetic NEG2 peptide (22 amino acid peptide corresponding to CFTR amino acids 817-838)]
